Data reported in PMC8354326.

Legend:
2G12 = test: ELISA; details: parent: 1.0
PGT145 = test: ELISA; details: parent: 1.0

Substance	ratio to parent (2G12)	ratio to parent (PGT145)
AMC008 SOSIP.v4.2 Env trimer K232T	0.9	1
AMC008 SOSIP.v4.2 Env trimer N611Q	0.8	0.8
AMC008 SOSIP.v4.2 Env trimer K232T; K236T	0.9	0.9
AMC008 SOSIP.v4.2 Env trimer N624D	0.8	0.9
AMC008 SOSIP.v4.2 Env trimer D620N	0.9	1.5
AMC008 SOSIP.v4.2 Env trimer N88Q	0.8	0.8
AMC008 SOSIP.v4.2 Env trimer K236T	0.9	1
AMC008 SOSIP.v4.2 Env trimer N637Q	0.9	0.8
AMC008 SOSIP.v4.2 Env trimer E662A	0.9	1.1
AMC008 SOSIP.v4.2 Env trimer N616Q	0.9	0.9
